The target of this assay is His-tagged T-cell immunoreceptor with Ig and ITIM domains (TIGIT) (UniProt Q495A1). Kind of assay: biolayer interferometry, His-tagged TIGIT. Background: BLI is a label-free optical method that tracks binding on a fibre tip over time.

B1: anti-TIGIT antibody TIG1 (antibody, from another filing, V domains shown)
VH: DVQLVESGGGLVQPGGSRKLSCAASGFTFSNFGMHWVRQAPEKGLEWVAFISSGSSSIYYADTVKGRFTISRDNPKNTLFLQMTSLRSEDTAMYYCARMRLDYYAMDYWGQGTSVTVSS
VL: DVQITQSPSYLAASPGETITINCRASKSISKYLAWYQEKPGKTNKLLIYSGSTLQSGIPSRFSGSGSGTDFTLTISSLEPEDFAMYYCQQHNEYPWTFGGGTKLEIK
For B1, the Kd (commonly a measure of binding affinity in units of concentration) was found to be 3.12 nM.
